The text below walks through data of patent US20150266957A1 (Regeneron, published 2015).

Test [1] concerns the target T1, mouse PROKR1 (mouse (Mus musculus), UniProt Q9JKL1 1-393).
T1 construct: whole, on cells; Expressed on engineered HEK293 or CHO cells; also called mPROKR1; 293/mPROKR1
As to the kind of experiment: flow cytometry, HEK293 cells expressing the target. Here is the method: (§1) Anti-PROKR antibodies generated in accordance with Example 1 were tested for the ability to bind to human, mouse, and monkey PROKR1 and PROKR2. For these experiments, HEK293 cells were engineered to express: human PROKR1; human PROKR2; mouse PROKR1; mouse PROKR2; cynomolgus monkey PROKR1; or cynomolgus monkey PROKR2. Binding of anti-human PROKR antibodies to the PROKR-expressing cell lines was measured by flow cytometry.
(§2) Adherent cells were collected using 1 mM EDTA in PBS, then washed, and re-suspended in cold PBS containing 5% FBS. For the binding experiments, each anti-PROKR antibody was added to 250,000 cells in 500 μl of PBS with 5% FBS (final antibody concentration of 13 nM). After incubation for 20 minutes at room temperature, the cells were washed with PBS containing 5% FBS. A secondary antibody, recognizing either human (Jackson Immuno Research, #115-135-205) or mouse Fc (BD Pharmigen, #550826) and conjugated to allophycyanin, was then added to the cell mixture at a final concentration of 13.3 nM. After incubating for 20 minutes on ice, the cells were washed and resuspended in PBS containing 5% FBS and then sorted and analyzed on a FACSCalibur (BD Biosciences) flow cytometer to determine relative binding by the candidate antibodies. The cell samples containing secondary antibody alone were used as negative control for FACS gating. Histograms of cells stained with anti-human PROKR antibodies were compared with cells stained with secondary alone. […] ND=not determined.

Another test deals with T2, cynomolgus monkey PROKR1 (cynomolgus monkey (Macaca fascicularis), UniProt G7PMD0 1-393).
T2 construct: whole, on cells; Expressed on engineered HEK293 cells; also called MfPROKR1; 293/mfPROKR1
T2 sequence (G7PMD0 entry or part of it): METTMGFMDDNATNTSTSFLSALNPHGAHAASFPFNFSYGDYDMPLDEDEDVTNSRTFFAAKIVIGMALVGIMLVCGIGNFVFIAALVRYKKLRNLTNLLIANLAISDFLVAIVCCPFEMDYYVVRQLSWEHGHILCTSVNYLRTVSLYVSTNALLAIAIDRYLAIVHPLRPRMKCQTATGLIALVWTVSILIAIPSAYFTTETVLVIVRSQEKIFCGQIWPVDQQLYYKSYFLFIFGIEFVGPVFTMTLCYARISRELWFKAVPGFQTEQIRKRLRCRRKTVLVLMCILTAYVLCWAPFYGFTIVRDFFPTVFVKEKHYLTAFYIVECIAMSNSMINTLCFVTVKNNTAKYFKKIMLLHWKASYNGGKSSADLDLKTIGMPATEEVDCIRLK
Nature of the test: flow cytometry, HEK293 cells expressing the target. Here is the method:
as §1, §2

For test [2], the target named is T3, mouse PROKR2 (mouse (Mus musculus), UniProt Q8K458 1-381).
T3 construct: whole, on cells; Expressed on engineered HEK293 or CHO cells; also called mPROKR2; CHO/mPROKR2
T3 sequence (Q8K458 whole entry): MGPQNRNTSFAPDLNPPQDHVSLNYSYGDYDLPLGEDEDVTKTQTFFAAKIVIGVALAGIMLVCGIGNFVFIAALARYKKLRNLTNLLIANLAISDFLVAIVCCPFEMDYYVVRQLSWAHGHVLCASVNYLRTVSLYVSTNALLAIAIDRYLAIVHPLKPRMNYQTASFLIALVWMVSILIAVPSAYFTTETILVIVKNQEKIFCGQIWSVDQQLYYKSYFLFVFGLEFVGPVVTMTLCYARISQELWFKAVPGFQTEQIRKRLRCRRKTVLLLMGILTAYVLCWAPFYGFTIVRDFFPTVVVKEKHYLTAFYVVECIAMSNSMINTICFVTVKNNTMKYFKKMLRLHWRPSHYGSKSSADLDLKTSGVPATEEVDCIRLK
As to the kind of experiment: flow cytometry, HEK293 cells expressing the target, 13 nM antibody. Here is the method: as §1, §2
(In general: In flow cytometry, cells or beads pass a laser one at a time.)

Test [3] deals with T4, human PROKR2 (human, UniProt Q8NFJ6 1-384).
T4 construct: Expressed on engineered HEK293 or CHO cells; also called hPROKR2; prokineticin receptor 2
T4 sequence (Q8NFJ6 whole entry): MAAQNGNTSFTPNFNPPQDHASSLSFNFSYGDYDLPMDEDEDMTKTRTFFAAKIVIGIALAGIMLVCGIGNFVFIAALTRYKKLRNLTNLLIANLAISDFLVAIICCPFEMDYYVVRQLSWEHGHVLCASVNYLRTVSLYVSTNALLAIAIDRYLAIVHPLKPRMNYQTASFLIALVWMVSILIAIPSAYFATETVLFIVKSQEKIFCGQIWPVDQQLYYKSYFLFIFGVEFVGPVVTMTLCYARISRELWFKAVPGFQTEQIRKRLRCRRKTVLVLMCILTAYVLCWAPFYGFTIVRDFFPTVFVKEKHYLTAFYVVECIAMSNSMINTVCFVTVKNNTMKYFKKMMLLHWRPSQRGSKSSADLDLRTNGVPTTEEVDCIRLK
The description is as above. Here is the method:
as §1, §2

Another test deals with T5, human PROKR2(1-53)-hFc (human).
T5 construct: also called soluble human PROKR2 (N-terminal portion)
As to the kind of experiment: SPR (Biacore 4000), 25 C, antibody captured. Here is the method: (§3) Kinetic experiments were carried out using HBS-EP (10 mM HEPES, 150 mM NaCl, 3 mM EDTA, 0.05% Surfactant P20, pH 7.4) as both the running buffer and the sample buffer. Antigen-antibody association rates were measured by injecting 2 concentrations (25 and 100 nM) of both human PROKR1 (1-62)-hFc (SEQ ID NO:179) and human PROKR2(1-53)-hFc (SEQ ID NO:180) over the captured antibody surface. Antibody-antigen association was monitored for 90 seconds while dissociation was monitored for 360 seconds. Kinetic on-rate (kₐ) and off-rate (kd) constants were determined from the data using Scrubber software version 2.0 c. Binding dissociation equilibrium constants (KD) and dissociative half-lives (t 1/2) were calculated from the kinetic rate constants as: KD=kd/kₐ and t 1/2=ln(2)/kd.
(Surface plasmon resonance follows binding to a sensor surface in real time, without labels.)

Test [4] concerns the target T1, mouse PROKR1. Nature of the test: cell-based or functional assay.
For test [5], the target named is T4, human PROKR2. As to the kind of experiment: flow cytometry, HEK293 cells expressing the target. Here is the method: as §1, §2
For a further test, the target named is T6, human PROKR1 (1-62)-hFc (human).
T6 construct: also called soluble human PROKR1 (N-terminal portion)
T6 sequence (chain, as listed by the source limits assumed): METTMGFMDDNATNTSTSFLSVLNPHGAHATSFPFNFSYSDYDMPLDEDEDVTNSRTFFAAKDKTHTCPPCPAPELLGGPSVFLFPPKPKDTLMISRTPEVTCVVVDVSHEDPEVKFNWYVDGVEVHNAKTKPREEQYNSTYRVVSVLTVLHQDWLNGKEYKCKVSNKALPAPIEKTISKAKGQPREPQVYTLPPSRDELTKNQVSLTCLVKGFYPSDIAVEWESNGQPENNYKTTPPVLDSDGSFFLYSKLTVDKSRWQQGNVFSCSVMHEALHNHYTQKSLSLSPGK
Nature of the test: SPR (Biacore 4000), 25 C, antibody captured, antigen injected at 25 and 100 nM. Here is the method: as §3

A further test concerns the target human PROKR1 (human, UniProt Q8TCW9 1-393). Nature of the test: cell-based or functional assay.
The target in test [6] is T3, mouse PROKR2. Nature of the test: flow cytometry, HEK293 cells expressing the target. Here is the method: as §1, §2
The target of the next test is T7, cynomolgus monkey PROKR2 (cynomolgus monkey (Macaca fascicularis), UniProt A0A7N9CAJ3 1-384).
T7 construct: whole, on cells; Expressed on engineered HEK293 cells; also called MfPROKR2; 293/mfPROKR2
T7 sequence (A0A7N9CAJ3 entry or part of it): as the sequence (Q8NFJ6 whole entry) above, with T11A, R357W, D364E, T374A counted along it
As to the kind of experiment: flow cytometry, HEK293 cells expressing the target. Here is the method: as §1, §2

T1 sequence (Q9JKL1 whole entry): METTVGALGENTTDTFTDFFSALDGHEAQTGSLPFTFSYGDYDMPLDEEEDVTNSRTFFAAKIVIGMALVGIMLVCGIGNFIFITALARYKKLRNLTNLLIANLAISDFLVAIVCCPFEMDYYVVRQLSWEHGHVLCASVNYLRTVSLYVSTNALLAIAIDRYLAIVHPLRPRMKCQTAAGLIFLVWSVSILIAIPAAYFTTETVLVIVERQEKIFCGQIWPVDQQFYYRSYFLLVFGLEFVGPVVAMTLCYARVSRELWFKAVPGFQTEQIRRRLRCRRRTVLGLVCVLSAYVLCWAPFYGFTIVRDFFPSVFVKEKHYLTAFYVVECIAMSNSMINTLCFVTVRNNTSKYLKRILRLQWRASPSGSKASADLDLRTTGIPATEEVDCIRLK
human PROKR1, sequence (Q8TCW9 whole entry): as the sequence (G7PMD0 entry or part of it) above, with A22V, A31T, G40S, V82I, I135V, R210K, F246V, N348D, A350V counted along it

B1: H2M6385N (antibody, V domains shown)
VH: EVQVVESGGGLVKPGGSLRLSCAASGFTFSNVWMTWVRQAPGKGLEWVGRIKSKIEGGTTDYAASVKGRFTISRDDSKNTQSLQMNSLKSEDTAVYYCSTGHLAYWGQGTLVIVSS
VL: DIVMTQTPLSSPVSLGQPASISCRSSQSLVHSDGSTYLSWLQQRPGQPPRLLIYKISNRFSGVPDRFSGSGAGTDFTLKISRVEAEDVGIYYCMQATQFPTFGQGTKVEIK
notes: the prefix H2M is not spelled out
As to B1, the binding result is reported as “no binding” with mouse PROKR1 [1], “no binding” in the test with cynomolgus monkey PROKR1, “binds” in the test with mouse PROKR2 [2] and “binds” in the test with human PROKR2 [3].

B2: H4H6671P (antibody, human IgG4, V domains shown)
VH: EVQLVESGGGLVKPGGSLRLSCAASGFTFSNAWMSWVRQAPGKGLEWVGRIKSRSDGGTTDYAAPVKGRFTISRDDSKNTLYLQMNSLKTEDTALYYCSPPGSHYGYWGQGTLVTVSS
VL: not shown
What is called Kd is the constant that tells how readily two partners part at equilibrium. In general, koff refers to the first-order rate constant of dissociation. In general, kon refers to a measure of how fast the partners come together. Usually t½ stands for the time needed for the level to fall by half in the phase considered. As to B2, in the test with human PROKR2(1-53)-hFc, the binding result was “no binding (tested: 25 and 100 nM antigen injected)”. Also, the “Block (%), calcium flux, mPROKR1 + PK1 (1 nM hPK1)” value with mouse PROKR1 [4] is 0%. Besides, in the test with human PROKR2 [5], the binding result is on record as “no binding”. Moreover, in the test with human PROKR1 (1-62)-hFc, the affinity, expressed as Kd, was 1.83 nM; the koff worked out at 0.000362 s⁻¹; the kon worked out at 198000 M⁻¹ s⁻¹; the t½ worked out at 32 min. For the same molecule, in the test with human PROKR1, the “Block (%), calcium flux, hPROKR1 + PK1 (20 nM hPK1)” value came to 45% and the “IC50 (nM), inhibition of calcium flux, hPROKR1 + PK1 (20 nM hPK1)” value was 14.5 nM.

B3: H1M6386N (antibody, mouse IgG1, V domains shown)
VH: NVQLVESGGGLVKPGGSLRLSCVASGFTFANAWMTWVRQAPGKGLEWVGRIKSKTDGGTTDHAAPVKGRFIVSRDDSKSTLYLQMNSLKTEDTAVYYCTNYAFQLWGQGTLVTVSS
VL: DIVMTQTPLSSLVTLGQSASISCRSSQGLVHSDGNTYLSWLHQRPGQPPRLLIYKISNRFSGVPDRFTGSGAGTDFTLKISRVEAEDVGVYYCMQSTQFPRTFGQGTKVEIK
notes: Chimeric: human variable domains, mouse constant domains
Consider B3, for which, in the test with human PROKR2(1-53)-hFc, the binding result is “no binding (tested: 25 and 100 nM antigen injected)”. Moreover, the binding result with mouse PROKR2 [6] is on record as “no binding”. The binding result with cynomolgus monkey PROKR2 was “no binding”. The binding result with mouse PROKR1 [1] was “no binding”. Moreover, the binding result in the test with cynomolgus monkey PROKR1 is “no binding”. For the same molecule, in the test with human PROKR1 (1-62)-hFc, binding was put at a Kd of 4.85 nM, the koff stood at 0.00103 s⁻¹, the on-rate (kon) amounted to 212000 M⁻¹ s⁻¹ and the t½ worked out at 11 min. Further, in the test with human PROKR1, the “Block (%), calcium flux, hPROKR1 + PK1 (20 nM hPK1)” value is 92%; the “IC50 (nM), inhibition of calcium flux, hPROKR1 + PK1 (20 nM hPK1)” value turned out to be 14.9 nM; the “IC50 (nM), inhibition of calcium flux, hPROKR1 + PK2 (20 nM hPK2)” value amounted to 16.2 nM. Also, the binding result in the test with human PROKR2 [3] is given as “binds”.
